Assay results as given in patent US20220324962A1.

Columns and labels:
[1] = biological target: full-length human MISRII (human) (UniProt Q16671); assay: cell-based or functional assay
[2] = biological target: active recombinant MIS (LRMIS) (human) (UniProt P03971); assay: cell-based or functional assay
[3] = biological target: active recombinant MIS (LRMIS) (human) (UniProt P03971); assay: sandwich ELISA: recombinant AMH (25 nM) captured on coated polyclonal anti-AMH, B10 titrated 666-0 nM, detected with anti-mouse Fc HRP

Sequence of UniProt P03971 (P03971 26-560): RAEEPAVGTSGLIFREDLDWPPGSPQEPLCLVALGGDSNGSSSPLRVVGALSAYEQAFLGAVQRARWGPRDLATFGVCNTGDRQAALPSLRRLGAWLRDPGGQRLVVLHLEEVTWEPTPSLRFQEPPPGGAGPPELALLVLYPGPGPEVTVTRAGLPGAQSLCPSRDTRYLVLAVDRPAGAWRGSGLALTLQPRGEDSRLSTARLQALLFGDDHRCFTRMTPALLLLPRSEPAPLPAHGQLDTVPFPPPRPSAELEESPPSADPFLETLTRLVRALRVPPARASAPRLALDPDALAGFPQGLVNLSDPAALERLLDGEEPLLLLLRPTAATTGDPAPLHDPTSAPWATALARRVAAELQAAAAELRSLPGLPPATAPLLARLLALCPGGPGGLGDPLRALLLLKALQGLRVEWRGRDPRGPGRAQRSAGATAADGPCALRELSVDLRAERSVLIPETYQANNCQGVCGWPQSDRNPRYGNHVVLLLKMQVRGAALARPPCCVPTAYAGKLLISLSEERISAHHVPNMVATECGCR
Sequence of UniProt Q16671 (Q16671 18-573): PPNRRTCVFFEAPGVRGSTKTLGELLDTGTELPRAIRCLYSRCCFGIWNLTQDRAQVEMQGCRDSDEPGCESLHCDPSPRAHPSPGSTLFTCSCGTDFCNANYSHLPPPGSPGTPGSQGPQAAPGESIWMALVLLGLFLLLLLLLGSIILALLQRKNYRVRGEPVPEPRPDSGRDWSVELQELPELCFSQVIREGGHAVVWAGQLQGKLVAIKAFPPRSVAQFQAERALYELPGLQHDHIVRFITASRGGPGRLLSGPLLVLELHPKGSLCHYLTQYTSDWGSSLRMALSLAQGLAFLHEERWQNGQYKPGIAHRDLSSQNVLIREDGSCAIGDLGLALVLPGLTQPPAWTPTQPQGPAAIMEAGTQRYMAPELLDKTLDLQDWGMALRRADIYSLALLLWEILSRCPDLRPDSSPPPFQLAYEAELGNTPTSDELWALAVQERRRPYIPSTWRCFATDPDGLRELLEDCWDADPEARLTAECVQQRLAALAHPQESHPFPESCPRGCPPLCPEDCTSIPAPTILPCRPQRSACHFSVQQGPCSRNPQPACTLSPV

| Apoptosis, evaluated by measuring caspase-3/7 activity (COV434-MISRII cells) [1] | Apoptosis, evaluated by measuring caspase-3/7 activity (SKOV3-MISRII cells) [1] | decrease in Caspase-3/7 activity induced by 25 nM MIS (fold change relative to untreated cells) [2] | EC50 [3] | Molecule |
| --- | --- | --- | --- | --- |
| 12.5 nM | 6.3 nM | – | – | active recombinant MIS (LRMIS) (from UniProt P03971 26-560) (ligand) |
| – | – | 40% | 50.4 nM | anti-MIS antibody B10 (antibody, V domains shown) VH: EVQLVESGGSLVKPGGSLRLSCAASGFTFSNYNMNWVRQAPGKGLEWISDINGSSRSIYYADFVKGRFTISRDNATNSLYLQMNSLRAEDTAVYYCVRSSYYGGGMDVWGRGTLVTVSS VL: QSVLTQPASVSGSPGQSITISCAGTSSDVGGYNYVSWYQQHPGKAPKLMIYYDSYRPSGVSNRFSGSKSGNTASLTISGLQAEDEADYYCSSYTDYSTRVFGGGTKLAVLG |
